This data set can be described thus: total protein half-life in vivo (active degradation + dilution); higher = more stable protein.
[1] abbreviates: E. coli NCM3722 delta-clpP delta-lon delta-hslV, growth: N-lim chemostat, doubling time 6 h.
Where [2] appears, read: E. coli NCM3722 delta-clpP, growth: N-lim chemostat, doubling time 6 h.
Where [3] appears, read: E. coli NCM3722 delta-hslV, growth: N-lim chemostat, doubling time 6 h.
Setting [4] is: E. coli NCM3722 delta-lon, growth: N-lim chemostat, doubling time 6 h.
Where [5] appears, read: E. coli NCM3722 delta-smpB, growth: N-lim chemostat, doubling time 6 h.
The mark [6] stands for this setting: wild type E. coli NCM3722, growth: C-lim chemostat, doubling time 3 h.
[7] abbreviates: wild type E. coli NCM3722, growth: C-lim chemostat, doubling time 6 h.
[8] abbreviates: wild type E. coli NCM3722, growth: C-lim chemostat, doubling time 12 h.
The mark [9] stands for this setting: wild type E. coli NCM3722, growth: N-lim chemostat, doubling time 6 h.
[10] abbreviates: wild type E. coli NCM3722, growth: N-lim chemostat, doubling time 12 h.
The mark [11] stands for this setting: wild type E. coli NCM3722, growth: P-lim chemostat, doubling time 6 h.
Where [12] appears, read: wild type E. coli NCM3722, growth: P-lim chemostat, doubling time 12 h.

± gives the standard deviation of the averaged measurements.

In the case of “MAVTKLVLVRHGESQWNKENRFTGWYDVDLSEKGVSEAKAAGKLLKEEGYSFDFAYTSVLKRAIHTLWNVLDELDQAWLPVEKSWKLNERHYGALQGLNKAETAEKYGDEQVKQWRRGFAVTPPELTKDDERYPGHDPRYAKLSEKELPLTESLALTIDRVIPYWNETILPRMKSGERVIIAAHGNSLRALVKYLDNMSEEEILELNIPTGVPLVYEFDENFKPLKRYYLGNADEIAAKAAAVANQGKAK”, the “total protein half-life in vivo” value stood at 5.09 ± 0.33 h under setting [1]; 5.4 ± 0.96 h under setting [2]; 5.11 ± 0.76 h under setting [3]; 5.42 ± 0.82 h under setting [4]; 4.7 ± 0.09 h under setting [5]; 3.18 ± 0.098 h under setting [6]. Also, the “total protein half-life in vivo” value is, setting by setting: under setting [7], 6.37 ± 0.56 h; under setting [8], 10.3 ± 0.34 h; under setting [9], 4.85 ± 0.46 h; under setting [10], 8.63 ± 0.17 h; under setting [11], 6.02 ± 0.45 h; under setting [12], 12 ± 0.62 h.

In the case of “MSVENIVNINESNLQQVLEQSMTTPVLFYFWSERSQHCLQLTPILESLAAQYNGQFILAKLDCDAEQMIAAQFGLRAIPTVYLFQNGQPVDGFQGPQPEEAIRALLDKVLPREEELKAQQAMQLMQESNYTDALPLLKDAWQLSNQNGEIGLLLAETLIALNRSEDAEAVLKTIPLQDQDTRYQGLVAQIELLKQAADTPEIQQLQQQVAENPEDAALATQLALQLHQVGRNEEALELLFGHLRKDLTAADGQTRKTFQEILAALGTGDALASKYRRQLYALLY”, the “total protein half-life in vivo” value turned out to be 4.51 ± 0.3 h under setting [1]; 4.61 ± 0.092 h under setting [2]; 5.26 ± 0.61 h under setting [3]; 6.044 ± 0.054 h under setting [4]; 4.75 ± 0.35 h under setting [5]; 3.1 ± 0.24 h under setting [6]. Moreover, the “total protein half-life in vivo” value by setting is: under setting [7], 6.038 ± 0.01 h; under setting [8], 11 ± 0.52 h; under setting [9], 5.25 ± 0.16 h; under setting [10], 8.64 ± 0.25 h; under setting [11], 5.31 ± 0.12 h; under setting [12], 11.9 ± 0.69 h.

With “MRKIKIGLALGSGAARGWSHIGVINALKKVGIEIDIVAGCSIGSLVGAAYACDRLSALEDWVTSFSYWDVLRLMDLSWQRGGLLRGERVFNQYREIMPETEIENCSRRFAAVATNLSTGRELWFTEGDLHLAIRASCSIPGLMAPVAHNGYWLVDGAVVNPIPISLTRALGADIVIAVDLQHDAHLMQQDLLSFNVSEENSENGDSLPWHARLKERLGSITTRRAVTAPTATEIMTTSIQVLENRLKRNRMAGDPPDILIQPVCPQISTLDFHRAHAAIAAGQLAVERKMDELLPLVRTNI [P0AFR0]”, the “total protein half-life in vivo” value under setting [1] worked out at 5 ± 0.29 h; the “total protein half-life in vivo” value under setting [2] came out at 4.67 ± 0.2 h; the “total protein half-life in vivo” value under setting [3] worked out at 4.923 ± 0.045 h; the “total protein half-life in vivo” value under setting [4] is 5.26 h; the “total protein half-life in vivo” value under setting [5] came to 4.51 ± 0.14 h; the “total protein half-life in vivo” value under setting [6] worked out at 2.951 ± 0.017 h. Moreover, the “total protein half-life in vivo” value reads like this: under setting [7], 5.25 ± 0.36 h; under setting [8], 10.6 ± 1.2 h; under setting [9], 5.61 ± 0.09 h; under setting [10], 8.89 ± 1.5 h; under setting [11], 5.659 ± 0.02 h; under setting [12], 11.7 ± 0.5 h.

With “MLKTISPLISPELLKVLAEMGHGDEIIFSDAHFPAHSMGPQVIRADGLLVSDLLQAIIPLFELDSYAPPLVMMAAVEGDTLDPEVERRYRNALSLQAPCPDIIRINRFAFYERAQKAFAIVITGERAKYGNILLKKGVTP [P0AEN8]”, the “total protein half-life in vivo” value reads like this: under setting [1], 6.09 ± 0.27 h; under setting [2], 6.25 ± 0.67 h; under setting [3], 6.67 ± 1.6 h; under setting [5], 5.51 ± 0.094 h; under setting [6], 3.05 ± 0.092 h; under setting [7], 6.7 ± 0.48 h. Further, the “total protein half-life in vivo” value was found to be 13.2 ± 0.83 h under setting [8]; 5.36 ± 0.38 h under setting [9]; 10.4 ± 1.1 h under setting [10]; 5.89 ± 0.63 h under setting [11]; 12.3 ± 0.71 h under setting [12].

“MAATKPAFNPPGKKGDIIFSVLVKLAALIVLLMLGGIIVSLIISSWPSIQKFGLAFLWTKEWDAPNDIYGALVPIYGTLVTSFIALLIAVPVSFGIALFLTELAPGWLKRPLGIAIELLAAIPSIVYGMWGLFIFAPLFAVYFQEPVGNIMSNIPIVGALFSGPAFGIGILAAGVILAIMIIPYIAAVMRDVFEQTPVMMKESAYGIGCTTWEVIWRIVLPFTKNGVIGGIMLGLGRALGETMAVTFIIGNTYQLDSASLYMPGNSITSALANEFAEAESGLHVAALMELGLILFVITFIVLAASKFMIMRLAKNEGAR [P0AGH8]”: the “total protein half-life in vivo” value turned out to be 5.52 ± 1 h under setting [1]; 5.62 ± 0.46 h under setting [3]; 5.31 ± 1.4 h under setting [4]; 5.08 ± 0.47 h under setting [5]; 15.4 h under setting [8]; 3.42 h under setting [9]. The “total protein half-life in vivo” value runs as follows: under setting [10], 12.1 h; under setting [11], 5.49 ± 0.25 h; under setting [12], 11.4 ± 0.52 h.

As for “MKFVDEASILVVAGDGGNGCVSFRREKYIPKGGPDGGDGGDGGDVWMEADENLNTLIDYRFEKSFRAERGQNGASRDCTGKRGKDVTIKVPVGTRVIDQGTGETMGDMTKHGQRLLVAKGGWHGLGNTRFKSSVNRTPRQKTNGTPGDKRELLLELMLLADVGMLGMPNAGKSTFIRAVSAAKPKVADYPFTTLVPSLGVVRMDNEKSFVVADIPGLIEGAAEGAGLGIRFLKHLERCRVLLHLIDIDPIDGTDPVENARIIISELEKYSQDLATKPRWLVFNKIDLLDKVEAEEKAKAIAEALGWEDKYYLISAASGLGVKDLCWDVMTFIIENPVVQAEEAKQPEKVEFMWDDYHRQQLEEIAEEDDEDWDDDWDEDDEEGVEFIYKR”, the “total protein half-life in vivo” value is, setting by setting: under setting [1], 5.72 ± 1.1 h; under setting [2], 4.17 ± 0.15 h; under setting [3], 2.39 ± 0.18 h; under setting [4], 2.44 ± 0.097 h; under setting [5], 2.185 ± 0.021 h; under setting [6], 2.27 ± 0.1 h. Also, the “total protein half-life in vivo” value under setting [7] amounted to 3.58 ± 0.14 h; the “total protein half-life in vivo” value under setting [8] was 5.35 ± 0.73 h; the “total protein half-life in vivo” value under setting [9] turned out to be 2.39 ± 0.11 h; the “total protein half-life in vivo” value under setting [10] worked out at 2.82 ± 0.035 h; the “total protein half-life in vivo” value under setting [11] was found to be 3.04 ± 0.22 h; the “total protein half-life in vivo” value under setting [12] was 5.89 ± 0.39 h.

With “MKFQAIVLASFLVMPYALADDQGGLKQDAAPPPPHAIEDGYRGTDDAKKMTVDFAKTMHDGASVSLRGNLISHKGEDRYVFRDKSGEINVVIPAAVFDGREVQPDQMINISGSLDKKSAPAVVRVTHLQK”, the “total protein half-life in vivo” value came to 3.34 ± 0.2 h under setting [1]; 3.77 ± 0.45 h under setting [2]; 5.37 ± 0.2 h under setting [3]; 3.02 ± 0.51 h under setting [6]; 5.22 ± 0.22 h under setting [7]; 6.52 ± 1.8 h under setting [8]. The “total protein half-life in vivo” value reads like this: under setting [9], 5.18 ± 0.37 h; under setting [10], 8.94 ± 0.26 h; under setting [11], 4.33 ± 0.9 h; under setting [12], 7.82 ± 2.9 h.
